This data set concerns Caco-2 polarized monolayer. As to the kind of experiment: Bidirectional transport of FITC-LL-37 through the Caco-2 epithelial monolayer. In kind it is in vitro ADME, human. Here is the method: Caco-2 cell line (ATCC HTB-37) was cultured in a humidified CO2-incubator (5% CO2, 37 °C) in the complete DMEM/F12 (1:1) medium (Gibco, Waltham, MA, USA) containing 10% fetal bovine serum (FBS, Gibco) and 1X antibiotic–antimycotic solution (Gibco). To stabilize the cell phenotype, Caco-2 cells have been subcultivated three times before seeding on the filter supports. Then, Caco-2 cells were seeded at a density of 2 × 10^5 cells/cm^2 onto 24-well Millicell cell culture inserts (PC, 0.4-μm pore size, 0.6 cm^2 surface area, cat. #PIHP01250) (Millipore, Burlington, MA, USA), precoated with 0.2% bovine gelatin (Sigma-Aldrich, Saint Louis, MO, USA). After seeding, Caco-2 cells were grown in the same complete medium with re-feeding every 2–3 days until polarization of the monolayer occurred. The functional polarity of the monolayers was developed when transepithelial electrical resistance (TEER) between the apical and basolateral surfaces of the monolayers reached […] as measured by the electrical resistance system Millicell-ERS Voltohmmeter (Millipore, Burlington, MA, USA). Grown cell monolayers were used in transport and cytokine production experiments between the 21st and 29th days.
LL-37 was labeled with fluorescein isothiocyanate isomer I (FITC) (Sigma-Aldrich). For coupling with FITC, 0.5 mg of LL-37 in 50 µL of DMSO was first mixed with 200 µL of the carbonate–bicarbonate coupling buffer (0.1 M sodium carbonate, 0.1 M sodium bicarbonate, pH 10.4). Then, 4 mg of FITC in 200 µL of DMSO was added to the solution, and the resultant mixture was incubated in the dark at room temperature (20–22 °C) for 2 h. FITC-LL-37 was purified by using a PD10 gel-filtration column (GE Healthcare, Chicago, IL, USA) pre-equilibrated with PBS.
The penetration capability of FITC-LL-37 was investigated using Caco-2 cells as an in vitro model of the intestinal epithelial barrier, grown on permeable Millicell cell culture inserts. Transport of the compound from both sides of the monolayer was determined in the transport buffer (Hank’s balanced salt solution, containing 25 mM HEPES, 1 mM MgCl2, 1 mM CaCl2, and 10 mM D(+)glucose, pH 7.4). […]
Transfer of LL-37 through Caco-2 monolayers under steady-state conditions was evaluated mathematically for each direction and each insert by the apparent permeability coefficient (Papp), calculated according to the following Equation (1): Papp = ΔC/Δt × (V/(A × Ci))(1) where ΔC/Δt is the solute flux (nM/s) across the barrier, V is the volume of the acceptor chamber, A is the effective filter area of the well (cm^2), and Ci is the initial concentration of the donor solution (nM). […]

For “LL-37: the only human cathelicidin, host defense antimicrobial peptide of 37 a.a. residues, produced by solid-phase peptide synthesis”, the “Apparent permeability (Papp) B → A (secretory)” value (Caco-2 (ATCC HTB-37) on Millicell PC inserts, day 21-29, TEER 400, basolateral-to-apical, FITC-labeled LL-37, 5 µM donor, HBSS, 25 mM HEPES, pH 7.4 both sides, 37 °C, 90 min, range over 4 independent inserts) is reported as 1.7–2.1 × 10^−6 cm/s. Moreover, the “Uptake ratio (UR) = Papp(A → B)/Papp(B → A)” value (Caco-2, FITC-labeled LL-37 5 µM, pH 7.4, 90 min) is reported as 0.51. Also, the “Efflux ratio (ER) = Papp(B → A)/Papp(A → B)” value (Caco-2, FITC-labeled LL-37 5 µM, pH 7.4, 90 min, no inhibitor) is 1.95. In addition, the “Predicted absorption in the human gut” value (predicted from Caco-2 Papp A → B by the classification of ref 20) is given as 0–20%.
